Assays:
[1] = biological target: T1, PFV-Gag-NtD (amino terminal domain of Prototypic Foamy Virus Gag, residues 1-179) (Prototypic foamy virus (PFV), UniProt P14349 1-179); assay: AUC
T1 chain: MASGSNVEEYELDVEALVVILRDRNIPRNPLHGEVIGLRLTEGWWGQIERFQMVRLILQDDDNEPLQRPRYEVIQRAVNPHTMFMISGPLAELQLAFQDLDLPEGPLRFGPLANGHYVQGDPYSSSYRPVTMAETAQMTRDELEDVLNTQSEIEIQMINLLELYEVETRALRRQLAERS

[2] = biological target: T2, PFV-Gag-NtD (amino terminal domain of Prototypic Foamy Virus Gag, residues 1-179) (Prototypic foamy virus (PFV), UniProt P14349 1-179); assay: AUC; sedimentation velocity of 75 µM equimolar mixtures of Gag-NtD and Env peptide, absorbance at 280 nm; bound fraction from the integrated absorbance of the 3S species in C(S); conditions: both partners purified
T2 construct: source: E. coli Rosetta 2 (DE3), purified (Ni-NTA, Superdex 200 SEC); not shown: His-tag, N-terminal, kept
T2 sequence: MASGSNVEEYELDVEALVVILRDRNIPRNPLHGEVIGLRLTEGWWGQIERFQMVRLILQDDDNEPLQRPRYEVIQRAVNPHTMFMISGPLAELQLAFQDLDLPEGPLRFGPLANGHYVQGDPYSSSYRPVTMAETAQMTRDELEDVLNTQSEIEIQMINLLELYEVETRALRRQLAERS

[3] = biological target: T3, PFV-Gag-NtD L21N (Prototypic foamy virus (PFV), UniProt P14349 1-179, L21N); assay: as above; conditions: both partners purified
T3 construct: Gag of Prototypic Foamy Virus, residues 1-179 (Gag-NtD) with L21N
T3 sequence (looked up): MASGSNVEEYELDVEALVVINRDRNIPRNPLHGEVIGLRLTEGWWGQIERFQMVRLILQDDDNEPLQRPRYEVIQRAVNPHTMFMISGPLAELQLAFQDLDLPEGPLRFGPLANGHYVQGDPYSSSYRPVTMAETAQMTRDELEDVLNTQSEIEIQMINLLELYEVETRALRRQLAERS

[4] = biological target: T4, PFV-Gag-NtD V14S/V18S (Prototypic foamy virus (PFV), UniProt P14349 1-179, V14S | V18S); assay: as above; conditions: both partners purified
T4 construct: Gag of Prototypic Foamy Virus, residues 1-179 (Gag-NtD) with V14S and V18S
T4 sequence (looked up): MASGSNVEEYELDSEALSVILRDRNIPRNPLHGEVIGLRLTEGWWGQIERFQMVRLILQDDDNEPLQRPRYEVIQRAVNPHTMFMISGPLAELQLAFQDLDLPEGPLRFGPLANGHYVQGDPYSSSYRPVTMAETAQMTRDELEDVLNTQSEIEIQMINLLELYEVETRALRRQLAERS

[5] = biological target: T5, PFV-Gag-NtD V18S/L21S (Prototypic foamy virus (PFV), UniProt P14349 1-179, V18S | L21S); assay: as above; conditions: both partners purified
T5 construct: Gag of Prototypic Foamy Virus, residues 1-179 (Gag-NtD) with V18S and L21S
T5 sequence (looked up): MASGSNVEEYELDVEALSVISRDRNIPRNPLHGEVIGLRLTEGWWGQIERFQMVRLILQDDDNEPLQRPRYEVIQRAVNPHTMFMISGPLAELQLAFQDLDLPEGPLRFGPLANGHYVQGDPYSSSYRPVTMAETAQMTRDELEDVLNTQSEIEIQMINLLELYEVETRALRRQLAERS

[6] = biological target: T6, PFV-Gag-NtD N29Q (Prototypic foamy virus (PFV), UniProt P14349 1-179, N29Q); assay: as above; conditions: both partners purified
T6 construct: Gag of Prototypic Foamy Virus, residues 1-179 (Gag-NtD) with N29Q
T6 sequence (looked up): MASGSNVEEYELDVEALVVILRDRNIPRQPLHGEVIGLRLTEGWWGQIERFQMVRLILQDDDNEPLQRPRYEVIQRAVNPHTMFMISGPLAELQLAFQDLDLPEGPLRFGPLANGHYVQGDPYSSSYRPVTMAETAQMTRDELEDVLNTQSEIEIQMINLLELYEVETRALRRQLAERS

[7] = biological target: T7, PFV-Gag-NtD V14S (Prototypic foamy virus (PFV), UniProt P14349 1-179, V14S); assay: as above; conditions: both partners purified
T7 construct: Gag of Prototypic Foamy Virus, residues 1-179 (Gag-NtD) with V14S
T7 sequence (looked up): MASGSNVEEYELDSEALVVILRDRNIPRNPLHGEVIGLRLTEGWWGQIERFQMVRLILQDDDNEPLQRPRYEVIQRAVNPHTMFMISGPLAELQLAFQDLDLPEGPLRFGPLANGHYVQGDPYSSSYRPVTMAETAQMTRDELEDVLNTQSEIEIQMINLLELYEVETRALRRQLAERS

[8] = biological target: T8, PFV-Gag-NtD V18S (Prototypic foamy virus (PFV), UniProt P14349 1-179, V18S); assay: as above; conditions: both partners purified
T8 construct: Gag of Prototypic Foamy Virus, residues 1-179 (Gag-NtD) with V18S
T8 sequence (looked up): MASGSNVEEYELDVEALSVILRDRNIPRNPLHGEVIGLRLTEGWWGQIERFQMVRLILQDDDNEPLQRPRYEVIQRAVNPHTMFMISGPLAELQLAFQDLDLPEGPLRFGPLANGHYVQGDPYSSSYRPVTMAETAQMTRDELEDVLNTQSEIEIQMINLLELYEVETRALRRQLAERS

[9] = biological target: T9, PFV-Gag-NtD L21S (Prototypic foamy virus (PFV), UniProt P14349 1-179, L21S); assay: as above; conditions: both partners purified
T9 construct: Gag of Prototypic Foamy Virus, residues 1-179 (Gag-NtD) with L21S
T9 sequence (looked up): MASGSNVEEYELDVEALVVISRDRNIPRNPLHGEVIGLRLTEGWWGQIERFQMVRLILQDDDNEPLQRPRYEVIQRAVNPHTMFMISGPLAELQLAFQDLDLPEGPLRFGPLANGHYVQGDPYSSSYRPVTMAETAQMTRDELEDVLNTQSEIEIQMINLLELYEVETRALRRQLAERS

B1: PFV Env leader peptide residues 1-20 (peptide, UniProt P14351 1-20, looked up)
peptide: MAPPMTLQQWIIWKKMNKAH
notes: Envelope (Env) protein of Prototypic Foamy Virus, N-terminal leader peptide region, residues 1-20 (Met1 to His20); the text names M1, A2, P3, P4, M5, T6, L7, Q9, W10, W13, M16, A19, H20; also called Env_(1-20); Env(1-20); source: synthetic peptide, bought HPLC purified: Pepceuticals Ltd
Kd [1]: 7.5 µM | Ka [2]: 130000 M⁻¹ | binding result [3]: binds | binding result [4]: binds | binding result [5]: binds | binding result [6]: binds | binding result [7]: binds | fold decrease of affinity against wt PFV-Gag-NtD [8]: 2 fold | fold decrease of affinity against wt PFV-Gag-NtD [9]: 5 fold

Source: article PMC3649970, “A Unique Spumavirus Gag N-terminal Domain with Functional Properties of Orthoretroviral Matrix and Capsid” (PLoS Pathogens, 2013)
